The values that follow come from IntAct's records for PubMed 25910212.

B1: N-chimaerin (Homo sapiens), P15882 (parent)
chain: MALTLFDTDEYRPPVWKSYLYQLQQEAPHPRRITCTCEVENRPKYYGREFHGMISREAADQLLIVAEGSYLIRESQRQPGTYTLALRFGSQTRNFRLYYDGKHFVGEKRFESIHDLVTDGLITLYIETKAAEYIAKMTINPIYEHVGYTTLNREPAYKKHMPVLKETHDERDSTGQDGVSEKRLTSLVRRATLKENEQIPKYEKIHNFKVHTFRGPHWCEYCANFMWGLIAQGVKCADCGLNVHKQCSKMVPNDCKPDLKHVKKVYSCDLTTLVKAHTTKRPMVVDMCIREIESRGLNSEGLYRVSGFSDLIEDVKMAFDRDGEKADISVNMYEDINIITGALKLYFRDLPIPLITYDAYPKFIESAKIMDPDEQLETLHEALKLLPPAHCETLRYLMAHLKRVTLHEKENLMNAENLGIVFGPTLMRSPELDAMAALNDIRYQRLVVELLIKNEDILF
B2: Forkhead box protein P3 (Homo sapiens), Q9BZS1 (parent)
chain: MPNPRPGKPSAPSLALGPSPGASPSWRAAPKASDLLGARGPGGTFQGRDLRGGAHASSSSLNPMPPSQLQLPTLPLVMVAPSGARLGPLPHLQALLQDRPHFMHQLSTVDAHARTPVLQVHPLESPAMISLTPPTTATGVFSLKARPGLPPGINVASLEWVSREPALLCTFPNPSAPRKDSTLSAVPQSSYPLLANGVCKWPGCEKVFEEPEDFLKHCQADHLLDEKGRAQCLLQREMVQSLEQQLVLEKEKLSAMQAHLAGKMALTKASSVASSDKGSCCIVAAGSQGPVVPAWSGPREAPDSLFAVRRHLWGSHGNSTFPEFLHNMDYFKFHNMRPPFTYATLIRWAILEAPEKQRTLNEIYHWFTRMFAFFRNHPATWKNAIRHNLSLHKCFVRVESEKGAVWTVDELEFRKKRSQRPSRCSNPTPGP
B3: Ribose-phosphate pyrophosphokinase 1 (Homo sapiens), P60891 (parent)
chain: MPNIKIFSGSSHQDLSQKIADRLGLELGKVVTKKFSNQETCVEIGESVRGEDVYIVQSGCGEINDNLMELLIMINACKIASASRVTAVIPCFPYARQDKKDKSRAPISAKLVANMLSVAGADHIITMDLHASQIQGFFDIPVDNLYAEPAVLKWIRENISEWRNCTIVSPDAGGAKRVTSIADRLNVDFALIHKERKKANEVDRMVLVGDVKDRVAILVDDMADTCGTICHAADKLLSAGATRVYAILTHGIFSGPAISRINNACFEAVVVTNTIPQEDKMKHCSKIQVIDISMILAEAIRRTHNGESVSYLFSHVPL
partner: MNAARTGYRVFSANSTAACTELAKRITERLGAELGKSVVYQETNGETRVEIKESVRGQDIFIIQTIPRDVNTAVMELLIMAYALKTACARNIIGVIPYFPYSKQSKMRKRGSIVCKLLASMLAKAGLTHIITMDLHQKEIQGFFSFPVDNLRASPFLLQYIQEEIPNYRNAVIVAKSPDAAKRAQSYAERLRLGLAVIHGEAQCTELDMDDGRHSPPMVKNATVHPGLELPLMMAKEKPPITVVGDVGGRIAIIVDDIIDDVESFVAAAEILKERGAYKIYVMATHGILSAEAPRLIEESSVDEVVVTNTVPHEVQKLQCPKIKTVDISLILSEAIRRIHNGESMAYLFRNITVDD
B4: Carbonic anhydrase-related protein (Homo sapiens), P35219 (parent)
chain: MADLSFIEDTVAFPEKEEDEEEEEEGVEWGYEEGVEWGLVFPDANGEYQSPINLNSREARYDPSLLDVRLSPNYVVCRDCEVTNDGHTIQVILKSKSVLSGGPLPQGHEFELYEVRFHWGRENQRGSEHTVNFKAFPMELHLIHWNSTLFGSIDEAVGKPHGIAIIALFVQIGKEHVGLKAVTEILQDIQYKGKSKTIPCFNPNTLLPDPLLRDYWVYEGSLTIPPCSEGVTWILFRYPLTISQLQIEEFRRLRTHVKGAELVEGCDGILGDNFRPTQPLSDRVIRAAFQ
partner: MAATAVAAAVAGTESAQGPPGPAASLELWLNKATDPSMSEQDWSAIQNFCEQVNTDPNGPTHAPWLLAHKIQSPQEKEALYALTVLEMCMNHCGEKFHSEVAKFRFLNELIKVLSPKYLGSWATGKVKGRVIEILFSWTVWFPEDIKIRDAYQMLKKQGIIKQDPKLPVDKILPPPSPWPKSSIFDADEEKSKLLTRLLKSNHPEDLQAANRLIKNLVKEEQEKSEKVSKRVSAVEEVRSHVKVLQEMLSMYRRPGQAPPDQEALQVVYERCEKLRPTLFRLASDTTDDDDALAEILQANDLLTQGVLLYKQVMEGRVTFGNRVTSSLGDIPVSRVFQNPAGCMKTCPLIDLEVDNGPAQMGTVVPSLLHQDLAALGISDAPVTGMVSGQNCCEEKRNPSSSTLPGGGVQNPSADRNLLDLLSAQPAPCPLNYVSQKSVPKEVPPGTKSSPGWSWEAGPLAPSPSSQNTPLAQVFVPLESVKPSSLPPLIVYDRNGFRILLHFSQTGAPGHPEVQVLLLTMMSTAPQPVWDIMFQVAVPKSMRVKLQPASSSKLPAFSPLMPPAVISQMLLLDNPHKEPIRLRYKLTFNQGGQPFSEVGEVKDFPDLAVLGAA

The variants in one test derive from B1. The following applies: with nck2_human NCK2, O43639.
Sequence of nck2_human NCK2, O43639 (O43639 whole entry): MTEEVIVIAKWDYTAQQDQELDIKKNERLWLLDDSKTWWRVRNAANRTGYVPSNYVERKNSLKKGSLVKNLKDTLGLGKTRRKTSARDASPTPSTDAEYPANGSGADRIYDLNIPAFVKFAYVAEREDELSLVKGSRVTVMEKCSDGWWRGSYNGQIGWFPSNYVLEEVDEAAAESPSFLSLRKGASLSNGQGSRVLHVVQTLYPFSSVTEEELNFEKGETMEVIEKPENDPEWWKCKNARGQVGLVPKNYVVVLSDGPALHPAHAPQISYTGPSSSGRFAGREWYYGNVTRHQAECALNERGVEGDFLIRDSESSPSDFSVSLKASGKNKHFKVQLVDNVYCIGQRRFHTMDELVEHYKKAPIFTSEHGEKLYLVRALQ
A223V: the “effect of a mutation on the interaction” value is “with no effect”.

The next test covers variants of B2. Conditions: with RBPMS.
Regarding I363V, the “effect of a mutation on the interaction” value is on record as “disrupting interaction strength”. Q70H: the “effect of a mutation on the interaction” value was “disrupting interaction strength”. In the case of P187L, the “effect of a mutation on the interaction” value is listed as “with no effect”. Turning to G52V, the “effect of a mutation on the interaction” value is given as “with no effect”.

Variants of B2 are the subject of the next test. Conditions: with pr20e_human PRR20E.
Regarding I363V, the “effect of a mutation on the interaction” value is “disrupting interaction strength”.

Take Q70H: the “effect of a mutation on the interaction” value is “disrupting interaction strength”. The same measure, in the same setting: the entry for P187L is “with no effect”; for G52V it is “with no effect”.

The next test covers variants of B3. Conditions: with kpra_human PRPSAP1, Q14558.
In the case of D183H, the “effect of a mutation on the interaction” value is given as “with no effect”. On the same count and under the same terms, next, N114S: “with no effect”. For D52H, the “effect of a mutation on the interaction” value was “with no effect”.

Variants of B4 are the subject of another test. The following applies: with gga2_human GGA2, Q9UJY4.
As to S100P, the “effect of a mutation on the interaction” value is given as “disrupting interaction strength”.
